The results in this text go back to article PMC5404317.

Sequences and labels used below:
B1: PINK1-V5 WT (V5-6xHis-tagged PINK1 wild type) [human] / CDC37 [human (endogenous in HeLa)] (parent)
chain 1: MAVRQALGRGLQLGRALLLRFTGKPGRAYGLGRPGPAAGCVRGERPGWAAGPGAEPRRVGLGLPNRLRFFRQSVAGLAARLQRQFVVRAWGCAGPCGRAVFLAFGLGLGLIEEKQAESRRAVSACQEIQAIFTQKSKPGPDPLDTRRLQGFRLEEYLIGQSIGKGCSAAVYEATMPTLPQNLEVTKSTGLLPGRGPGTSAPGEGQERAPGAPAFPLAIKMMWNISAGSSSEAILNTMSQELVPASRVALAGEYGAVTYRKSKRGPKQLAPHPNIIRVLRAFTSSVPLLPGALVDYPDVLPSRLHPEGLGHGRTLFLVMKNYPCTLRQYLCVNTPSPRLAAMMLLQLLEGVDHLVQQGIAHRDLKSDNILVELDPDGCPWLVIADFGCCLADESIGLQLPFSSWYVDRGGNGCLMAPEVSTARPGPRAVIDYSKADAWAVGAIAYEIFGLVNPFYGQGKAHLESRSYQEAQLPALPESVPPDVRQLVRALLQREASKRPSARVAANVLHLSLWGEHILALKNLKLDKMVGWLLQQSAATLLANRLTEKCCVETKMKMLFLANLECETLCQAALLLCSWRAAL
chain 2: MVDYSVWDHIEVSDDEDETHPNIDTASLFRWRHQARVERMEQFQKEKEELDRGCRECKRKVAECQRKLKELEVAEGGKAELERLQAEAQQLRKEERSWEQKLEEMRKKEKSMPWNVDTLSKDGFSKSMVNTKPEKTEEDSEEVREQKHKTFVEKYEKQIKHFGMLRRWDDSQKYLSDNVHLVCEETANYLVIWCIDLEVEEKCALMEQVAHQTIVMQFILELAKSLKVDPRACFRQFFTKIKTADRQYMEGFNDELEAFKERVRGRAKLRIEKAMKEYEEEERKKRLGPGGLDPVEVYESLPEELQKCFDVKDVQMLQDAISKMDPTDAKYHMQRCIDSGLWVPNSKASEAKEGEEAGPGDPLLEAVPKTGDEKDVSV
B2: PINK1-V5 WT (V5-6xHis-tagged PINK1 wild type) [human] / TOM40 [human (endogenous in HeLa)] (parent)
chain 1: B1 chain 1
chain 2: MGNVLAASSPPAGPPPPPAPALVGLPPPPPSPPGFTLPPLGGSLGAGTSTSRSSERTPGAATASASGAAEDGACGCLPNPGTFEECHRKCKELFPIQMEGVKLTVNKGLSNHFQVNHTVALSTIGESNYHFGVTYVGTKQLSPTEAFPVLVGDMDNSGSLNAQVIHQLGPGLRSKMAIQTQQSKFVNWQVDGEYRGSDFTAAVTLGNPDVLVGSGILVAHYLQSITPCLALGGELVYHRRPGEEGTVMSLAGKYTLNNWLATVTLGQAGMHATYYHKASDQLQVGVEFEASTRMQDTSVSFGYQLDLPKANLLFKGSVDSNWIVGATLEKKLPPLPLTLALGAFLNHRKNKFQCGFGLTIG

Variants of B1 are the subject of assay [1]. Kind of assay: co-immunoprecipitation (V5 agarose) with western blot quantification. The following applies: HeLa cells, read off a plot. In general terms: In western blotting, separated proteins are transferred to a membrane and probed.
The variants in assay [2] derive from B2. The description is as above. The following applies: HeLa cells, read off a plot.

As to chain 1 MAVRQALGRGLQLGRALLLRFTGKPGRAYGLGRPGPAAGCVRGERPGWAAGPGAEPRRVGLGLPNRLRFFRQSVAGLAARLQRQFVVRAWGCAGPCGRAVFLAFGLGLGLIEEKQAESRRAVSACQEIQAIFTQKSKPGPDPLDTRRLQGFRLEEYLIGQSIGKGCSAAVYEATMPTLPQNLEVTKSTGLLPGRGPGTSAPGEGQERAPGAPAFPLAIKMMWNISAGSSSEAILNTMSQELVPASRVALAGEYGAVTYRKSKRGPKQLAPHPNIIRVLRAFTSSVPLLPGALVDYPDVLPSRLHPEGLGHGRTLFLVMKNYPCTLRQYLCVNTPSPRLAAMMLLQLPEGVDHLVQQGIAHRDLKSDNILVELDPDGCPWLVIADFGCCLADESIGLQLPFSSWYVDRGGNGCLMAPEVSTARPGPRAVIDYSKADAWAVGAIAYEIFGLVNPFYGQGKAHLESRSYQEAQLPALPESVPPDVRQLVRALLQREASKRPSARVAANVLHLSLWGEHILALKNLKLDKMVGWLLQQSAATLLANRLTEKCCVETKMKMLFLANLECETLCQAALLLCSWRAAL [chain 1 L347P], the response (cdc37/V5 ratio) came to 0.55 in assay [1] (10 μM CCCP for 2 h) and 0.58 in assay [1] (untreated (no CCCP)).
For chain 1 MAVRQALGRGLQLGRALLLRFTGKPGRAYGLGRPGPAAGCVRGERPGWAAGPGAEPRRVGLGLPNRLRFFRQSVAGLAARLQRQFVVRAWGCAGPCGRAVFLAFGLGLGLIEEKQAESRRAVSACQEIQAIFTQKSKPGPDPLDTRRLQGFRLEEYLIGQSIGKGCSAAVYEATMPTLPQNLEVTKSTGLLPGRGPGTSAPGEGQERAPGAPAFPLAIKMMWNISAGSSSEAILNTMSQELVPASRVALAGEYGAVTYRKSKRGPKQLAPHPNIIRVLRAFTSSVPLLPGALVDYPDVLPSRLHPEGLGHGRTLFLVMKNYPCTLRQYLCVNTPSPRLAAMMLLQLLEGVDHLVQQGIAHRDLKSDNNLVELDPDGCPWLVIADFGCCLADESIGLQLPFSSWYVDRGGNGCLMAPEVSTARPGPRAVIDYSKADAWAVGAIAYEIFGLVNPFYGQGKAHLESRSYQEAQLPALPESVPPDVRQLVRALLQREASKRPSARVAANVLHLSLWGEHILALKNLKLDKMVGWLLQQSAATLLANRLTEKCCVETKMKMLFLANLECETLCQAALLLCSWRAAL [chain 1 I368N], the response (cdc37/V5 ratio) was 0.66 in assay [1] (10 μM CCCP for 2 h) and 0.61 in assay [1] (untreated (no CCCP)).
chain 1 MAVRQALGRGLQLGRALLLRFTGKPGRAYGLGRPGPAAGCVRGERPGWAAGPGAEPRRVGLGLPNRLRFFRQSVAGLAARLQRQFVVRAWGCAGPCGRAVFLAFGLGLGLIEEKQAESRRAVSACQEIQAIFTQKSKPGPDPLDTRRLQGFRLEEYLIGQSIGKGCSAAVYEATMPTLPQNLEVTKSTGLLPGRGPGTSAPGEGQERAPGAPAFPLAIKMMWNISAGSSSEAILNTMSQELVPASRVALAGEYGAVTYRKSKRGPKQLAPHPNIIRVLRAFTSSVPLLPGALVDYPDVLPSRLHPEGLGHGRTLFLVMKNYPCTLRQYLCVNTPSPRLAAMMLLQLLEGVDHLVQQGIAHRDLKSDNNLVELDPDGCPWLVIADFGCCLADESIGLQLPFSSWYVDRGGNGCLMAPEVSTARPGPRAVIDYSKADAWAVGAIAYEIFGLVNPFYGQGKAHLESRSYQEAQLPALPESVPPDVRQLVRALLQREASKRPSARVAANVLHLSLWGEHILALKNLKLDKMVGWLLQQSAATLLANRLTEKCCVETKMKMLFLANLECETLCQAALLLCSWRAAL [chain 1 I368N]: the response (Tom40/V5 ratio) was 0.32 in assay [2] (10 μM CCCP for 2 h) and 0.42 in assay [2] (untreated (no CCCP)).
For the variant chain 1 MAVRQALGRGLQLGRALLLRFTGKPGRAYGLGRPGPAAGCVRGERPGWAAGPGAEPRRVGLGLPNRLRFFRQSVAGLAARLQRQFVVRAWGCAGPCGRAVFLAFGLGLGLIEEKQAESRRAVSACQEIQAIFTQKSKPGPDPLDTRRLQGFRLEEYLIGQSIGKGCSAAVYEATMPTLPQNLEVTKSTGLLPGRGPGTSAPGEGQERAPGAPAFPLAIKMMWNISAGSSSEAILNTMSQELVPASRVALAGEYGAVTYRKSKRGPKQLAPHPNIIRVLRAFTSSVPLLPGALVDYPDVLPSRLHPEGLGHGRTLFLVMKNYPCTLRQYLCVNTPSPRLAAMMLLQLPEGVDHLVQQGIAHRDLKSDNILVELDPDGCPWLVIADFGCCLADESIGLQLPFSSWYVDRGGNGCLMAPEVSTARPGPRAVIDYSKADAWAVGAIAYEIFGLVNPFYGQGKAHLESRSYQEAQLPALPESVPPDVRQLVRALLQREASKRPSARVAANVLHLSLWGEHILALKNLKLDKMVGWLLQQSAATLLANRLTEKCCVETKMKMLFLANLECETLCQAALLLCSWRAAL [chain 1 L347P], the figures for the response (Tom40/V5 ratio) in assay [2] (10 μM CCCP for 2 h) and in assay [2] (untreated (no CCCP)) were 0.19 and 0.35, respectively.
